Values of other authors, collected in patent US9814672B2, “Echogenic vehicle for clinical delivery of plasminogen activator and other fibrin-binding therapeutics to thrombi” (priority 2007, dated 2017).

Target: T1, fibrinogen αC domains (Homo sapiens, UniProt P02671)
T1 sequence (P02671 240-629 limits assumed): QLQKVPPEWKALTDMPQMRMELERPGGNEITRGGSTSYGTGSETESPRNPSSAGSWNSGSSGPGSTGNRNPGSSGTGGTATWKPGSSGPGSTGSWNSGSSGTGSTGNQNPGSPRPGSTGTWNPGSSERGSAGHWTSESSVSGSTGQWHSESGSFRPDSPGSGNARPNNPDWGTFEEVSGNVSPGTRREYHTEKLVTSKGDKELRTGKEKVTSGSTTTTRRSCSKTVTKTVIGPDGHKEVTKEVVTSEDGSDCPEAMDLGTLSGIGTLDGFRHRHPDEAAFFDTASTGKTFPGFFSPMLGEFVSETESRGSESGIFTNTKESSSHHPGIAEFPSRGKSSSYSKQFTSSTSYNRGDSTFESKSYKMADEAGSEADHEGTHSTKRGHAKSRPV
Conditions: Tsurupa and Medved 2001; cited from earlier work

For “tPA: Recombinant tissue-plasminogen activator (Activase®, Genentech Inc.), used as the thrombolytic agent [reference compound]”, the Kd is given as 33 ± 5 nM.
